Experimental data: publication PMC5098211

Key:
[1] = target: human NaV1.5 voltage-gated sodium channel (human) (UniProt Q14524)
[2] = target: human NaV1.5 voltage-gated sodium channel (human) (UniProt Q14524); remark: listed apart in the source

Chain of UniProt Q14524 (Q14524 whole entry): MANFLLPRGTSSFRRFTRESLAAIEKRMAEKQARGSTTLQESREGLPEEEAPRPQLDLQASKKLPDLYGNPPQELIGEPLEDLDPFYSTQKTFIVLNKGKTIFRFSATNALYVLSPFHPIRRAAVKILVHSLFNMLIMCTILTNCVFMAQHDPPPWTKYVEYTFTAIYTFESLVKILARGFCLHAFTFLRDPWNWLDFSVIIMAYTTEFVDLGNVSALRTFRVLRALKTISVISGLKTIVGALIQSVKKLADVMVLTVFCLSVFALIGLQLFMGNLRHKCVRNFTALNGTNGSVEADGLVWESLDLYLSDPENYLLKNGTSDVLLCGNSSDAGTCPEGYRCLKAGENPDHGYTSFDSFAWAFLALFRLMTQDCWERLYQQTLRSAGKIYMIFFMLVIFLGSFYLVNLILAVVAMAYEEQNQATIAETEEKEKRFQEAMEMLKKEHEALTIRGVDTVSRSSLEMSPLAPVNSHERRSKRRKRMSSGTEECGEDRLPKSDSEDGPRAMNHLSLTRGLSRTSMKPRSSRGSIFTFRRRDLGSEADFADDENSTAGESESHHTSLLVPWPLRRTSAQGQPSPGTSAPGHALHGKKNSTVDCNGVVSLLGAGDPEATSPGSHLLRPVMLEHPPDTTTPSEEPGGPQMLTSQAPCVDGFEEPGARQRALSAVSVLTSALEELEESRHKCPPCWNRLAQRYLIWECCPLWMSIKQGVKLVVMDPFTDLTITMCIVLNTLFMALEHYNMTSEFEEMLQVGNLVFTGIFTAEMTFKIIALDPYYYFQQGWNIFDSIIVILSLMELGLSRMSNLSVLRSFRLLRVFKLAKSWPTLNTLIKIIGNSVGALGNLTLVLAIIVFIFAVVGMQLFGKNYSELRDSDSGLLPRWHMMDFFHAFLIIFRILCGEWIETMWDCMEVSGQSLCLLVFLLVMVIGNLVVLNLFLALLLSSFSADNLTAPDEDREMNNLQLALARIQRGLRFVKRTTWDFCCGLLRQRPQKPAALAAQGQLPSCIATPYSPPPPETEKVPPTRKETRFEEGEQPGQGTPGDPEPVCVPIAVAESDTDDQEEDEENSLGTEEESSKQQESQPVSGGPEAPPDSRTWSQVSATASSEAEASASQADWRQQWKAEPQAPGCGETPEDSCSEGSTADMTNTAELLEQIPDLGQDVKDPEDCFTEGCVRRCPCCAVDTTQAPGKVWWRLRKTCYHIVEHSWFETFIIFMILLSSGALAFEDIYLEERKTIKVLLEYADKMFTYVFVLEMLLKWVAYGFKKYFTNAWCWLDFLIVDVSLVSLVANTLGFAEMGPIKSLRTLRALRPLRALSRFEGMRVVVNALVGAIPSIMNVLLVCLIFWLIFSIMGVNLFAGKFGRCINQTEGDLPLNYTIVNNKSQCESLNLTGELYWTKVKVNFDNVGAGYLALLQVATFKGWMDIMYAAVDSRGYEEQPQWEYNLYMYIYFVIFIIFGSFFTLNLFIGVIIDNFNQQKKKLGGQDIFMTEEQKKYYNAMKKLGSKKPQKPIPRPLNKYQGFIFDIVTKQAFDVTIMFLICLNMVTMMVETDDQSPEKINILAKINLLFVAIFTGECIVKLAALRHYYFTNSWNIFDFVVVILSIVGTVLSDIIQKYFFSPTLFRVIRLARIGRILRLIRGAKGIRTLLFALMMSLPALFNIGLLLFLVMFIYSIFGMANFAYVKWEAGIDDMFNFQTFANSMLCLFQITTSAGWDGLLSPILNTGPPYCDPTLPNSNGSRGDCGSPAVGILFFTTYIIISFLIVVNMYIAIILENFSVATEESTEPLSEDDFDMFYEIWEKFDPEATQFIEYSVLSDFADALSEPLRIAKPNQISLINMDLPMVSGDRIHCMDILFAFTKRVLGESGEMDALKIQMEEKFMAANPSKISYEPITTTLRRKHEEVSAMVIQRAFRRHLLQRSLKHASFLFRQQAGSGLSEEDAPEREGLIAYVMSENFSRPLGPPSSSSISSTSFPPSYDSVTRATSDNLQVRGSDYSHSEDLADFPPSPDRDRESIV

## FS50, salivary protein from the flea Xenopsylla cheopis (from UniProt A2IAD2 20-96) (natural protein)
[1]
  IC50 of inhibition of NaV1.5 currents, whole-cell patch clamp on HEK 293T cells, FS50 from 0.1 nM to 100 μM: 1580 nM
  reduction of the control peak amplitude of the NaV1.5 current at 10 μM FS50, whole-cell patch clamp on HEK 293T cells (at 30 μM the remaining inward current was eliminated completely): 82.5%
[2]
  time constant of inhibition of NaV1.5 currents at 5 μM FS50, whole-cell patch clamp on HEK 293T cells: 15 s
